Results reported in PMC2171850.

Biological target: Hrp65, endogenous in C. tentans tissue culture cells (C. tentans (endogenous in C. tentans tissue culture cells))
Assay: co-IP

“Hrp59, endogenous in C. tentans tissue culture cells (natural protein)” was tested, and the percent of the association that is RNase-sensitive was 50%.
